The source of these data is article PMC3404891.

The target of one data set is EGF (Homo sapiens) (UniProt P01133). As to the kind of experiment: functional ELISA. The following applies: cited from earlier work.
In data set [1] the target is T1, recombinant human EGFR/ErbB1 Fc Chimera (human, UniProt P00533 25-645). As to the kind of experiment: nanogap break-junction I-V measurement.
Data set [2] addresses T1, recombinant human EGFR/ErbB1 Fc Chimera. As to the kind of experiment: surface capture, Sypro Ruby fluorescence.

Bounds are passed on as bounds.

Sequence of EGF (Homo sapiens) (P01133 971-1023): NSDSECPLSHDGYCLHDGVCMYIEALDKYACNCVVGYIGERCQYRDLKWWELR

For “EGFR/ErbB1 Fc chimera (from UniProt P00533)”, the Kd with EGF (Homo sapiens) was under 8 nM.

B1: extended mutant (scrambled) aptamer hybridized to surface-anchored capture ssDNA (mixed)
RNA: GGCGCUCCGACCUUAGUCUCUGUUCCCACAUCAUGCACAAGGACAAUUCUGUGCAUCCAAGGAGGAGUUCUCGGAACCGUGUAGCACAGCAGAGAAUUAAAUGCCCGCCAUGACCAG
DNA: CTGGTCATGGCGGGCATTTAATTC
modifications: 5'-amine on DNA strand S3
For the molecule B1, in data set [1], the binding result is “no binding”.

B2: extended anti-EGFR RNA aptamer hybridized to surface-anchored capture ssDNA (mixed)
RNA: GGCGCUCCGACCUUAGUCUCUGUGCCGCUAUAAUGCACGGAUUUAAUCGCCGUAGAAAAGCAUGUCAAAGCCGGAACCGUGUAGCACAGCAGAGAAUUAAAUGCCCGCCAUGACCAG
DNA: CTGGTCATGGCGGGCATTTAATTC
modifications: 5'-amine on DNA strand S3
Consider B2, for which, in data set [2], the binding result is on record as “binds”.

In general, Kd refers to the concentration at which binding is half-saturated.
